{"source": "the supplement of paper PMC7125110", "parents": {"B1": {"name": "glmS ribozyme (parent)", "chain": "AUAAAAGCGCCAGAACUACAGAAAUGUAGUUGACGAGGAGGAGGUUUAUCGAAUUUUCGGCGGAUGCCUCCAAA"}}, "note": "± gives the standard error. This sample holds only a part of the variants without activity."}
{"variants_of": "B1", "experiment": "self-cleavage kobs at 2500 uM GlcN6P; higher = faster cleavage; RNA array", "details": "with glucosamine-6-phosphate", "outline": "(§1)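 Over ~14 h at 37 °C, tiles were imaged as glucosamine-6-phosphate (40 μM to 10 mM) in HEPES/KCl/Mg(OAc)2 buffer flowed across sequenced MiSeq chips. The chips carried barcoded ribozyme variants transcribed in situ by E. coli RNA polymerase and tracked with a hybridised Cy3 probe. After normalisation to baseline and to non-cleaving reference variants, one- or two-exponential decay fits of per-tile medians gave kobs. kcat and KM followed from weighted Michaelis–Menten fits across concentrations.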", "units": {"self-cleavage kobs at 2500 uM GlcN6P": "s⁻¹"}}
{"variant": "A15C A36C G59A U65A", "self-cleavage kobs at 2500 uM GlcN6P": "< 1e-05"}
{"variant": "C16A G43A C58U", "self-cleavage kobs at 2500 uM GlcN6P": "< 1e-05"}
{"variant": "G13U G38A U55A A64U", "self-cleavage kobs at 2500 uM GlcN6P": "< 1e-05"}
{"variant": "C16U A39U U46C A64G C71G", "self-cleavage kobs at 2500 uM GlcN6P": "9.88e-05 ± 3.4e-05"}
{"variant": "A14U U45G A53C U65C", "self-cleavage kobs at 2500 uM GlcN6P": "< 1e-05"}
{"variant": "U30C G41U A42C", "self-cleavage kobs at 2500 uM GlcN6P": "< 1e-05"}
{"variant": "G13U A48U G59C G62U", "self-cleavage kobs at 2500 uM GlcN6P": "< 1e-05"}
{"variant": "A14U G32C A52U", "self-cleavage kobs at 2500 uM GlcN6P": "< 1e-05"}
{"variant": "A15G G29U A39G C67U", "self-cleavage kobs at 2500 uM GlcN6P": "0.000169 ± 5.3e-05"}
{"variant": "U30G C58G G60U", "self-cleavage kobs at 2500 uM GlcN6P": "< 1e-05"}
{"variant": "C16G U30A A42C U69G", "self-cleavage kobs at 2500 uM GlcN6P": "0.000262 ± 6.8e-05"}
{"variant": "G32A C34G C71U", "self-cleavage kobs at 2500 uM GlcN6P": "< 1e-05"}
{"variant": "C16U G37U A42G", "self-cleavage kobs at 2500 uM GlcN6P": "< 1e-05"}
{"variant": "U30G U46G C58U", "self-cleavage kobs at 2500 uM GlcN6P": "< 1e-05"}
{"variant": "C16U C34G C50G", "self-cleavage kobs at 2500 uM GlcN6P": "0.00012 ± 5e-05"}
{"variant": "A14G U55G G66U", "self-cleavage kobs at 2500 uM GlcN6P": "0.00182 ± 0.00038"}
{"variant": "C16U G29U C70G C71A", "self-cleavage kobs at 2500 uM GlcN6P": "7.2e-05 ± 1.7e-05"}
{"variant": "C19A A53C C71A", "self-cleavage kobs at 2500 uM GlcN6P": "0.000384 ± 0.00012"}
{"variant": "G29U U46A U56A G62U C68U", "self-cleavage kobs at 2500 uM GlcN6P": "< 1e-05"}
{"variant": "G29C G62C U65A", "self-cleavage kobs at 2500 uM GlcN6P": "< 1e-05"}
{"variant": "A15G A39U G41A", "self-cleavage kobs at 2500 uM GlcN6P": "0.000369 ± 0.0001"}
{"variant": "A15U G40A A52C G66U", "self-cleavage kobs at 2500 uM GlcN6P": "< 1e-05"}
{"variant": "A14U G51A C58G G60U G63U U65A", "self-cleavage kobs at 2500 uM GlcN6P": "< 1e-05"}
{"variant": "U31G G44U G51C C58U G63U", "self-cleavage kobs at 2500 uM GlcN6P": "< 1e-05"}
{"variant": "A14U G41U U54A", "self-cleavage kobs at 2500 uM GlcN6P": "0.000104 ± 3.2e-05"}
{"variant": "A15C A36C A48U", "self-cleavage kobs at 2500 uM GlcN6P": "< 1e-05"}
{"variant": "U30G G63C A64U", "self-cleavage kobs at 2500 uM GlcN6P": "< 1e-05"}
{"variant": "G29C C34U G35A G40U G59C", "self-cleavage kobs at 2500 uM GlcN6P": "< 1e-05"}
{"variant": "C16U U30C C50A", "self-cleavage kobs at 2500 uM GlcN6P": "< 1e-05"}
{"variant": "A15G U45C U65G", "self-cleavage kobs at 2500 uM GlcN6P": "0.000117 ± 3.1e-05"}
{"variant": "G29U U45C U46G", "self-cleavage kobs at 2500 uM GlcN6P": "6.29e-05 ± 2.8e-05"}
{"variant": "G29U G32C U56A", "self-cleavage kobs at 2500 uM GlcN6P": "7.28e-05 ± 1.4e-05"}
{"variant": "A14U A48C C70U", "self-cleavage kobs at 2500 uM GlcN6P": "3.58e-05 ± 1.6e-05"}
{"variant": "A14G U45A U69A", "self-cleavage kobs at 2500 uM GlcN6P": "0.000801 ± 0.00024"}
{"variant": "A14C G40U A53G", "self-cleavage kobs at 2500 uM GlcN6P": "0.000325 ± 5.5e-05"}
{"variant": "A15U A48C G59A G60U", "self-cleavage kobs at 2500 uM GlcN6P": "< 1e-05"}
{"variant": "A15U C16U U49A C70G", "self-cleavage kobs at 2500 uM GlcN6P": "4.48e-05 ± 1.7e-05"}
{"variant": "G13U A15U C71U", "self-cleavage kobs at 2500 uM GlcN6P": "5.99e-05 ± 2.5e-05"}
{"variant": "A15U G29C C50U", "self-cleavage kobs at 2500 uM GlcN6P": "< 1e-05"}
{"variant": "U30A G41U U55G G59A U69A", "self-cleavage kobs at 2500 uM GlcN6P": "< 1e-05"}
{"variant": "A15U C50U U54C G59C", "self-cleavage kobs at 2500 uM GlcN6P": "< 1e-05"}
{"variant": "U30A U46G A53U", "self-cleavage kobs at 2500 uM GlcN6P": "0.000335 ± 9.7e-05"}
{"variant": "A14C A33G C34G G37C G60C", "self-cleavage kobs at 2500 uM GlcN6P": "< 1e-05"}
{"variant": "C16U U30C G35C U45A U55G G59U", "self-cleavage kobs at 2500 uM GlcN6P": "< 1e-05"}
{"variant": "C16G U30C C34G U55C C61U C67U", "self-cleavage kobs at 2500 uM GlcN6P": "< 1e-05"}
{"variant": "U31A A52U", "self-cleavage kobs at 2500 uM GlcN6P": "2.52e-05 ± 1.1e-05"}
{"variant": "G26U C58U", "self-cleavage kobs at 2500 uM GlcN6P": "6.46e-05 ± 1.7e-05"}
{"variant": "G32A U57C", "self-cleavage kobs at 2500 uM GlcN6P": "5.22e-05 ± 1.9e-05"}
{"variant": "A24C G29U A64G", "self-cleavage kobs at 2500 uM GlcN6P": "0.000837 ± 0.00014"}
{"variant": "G13C U31G A36G U46A C70G", "self-cleavage kobs at 2500 uM GlcN6P": "< 1e-05"}
{"variant": "A15C U30A U31C A48U", "self-cleavage kobs at 2500 uM GlcN6P": "7.36e-05 ± 3e-05"}
{"variant": "G32A A33U G51U", "self-cleavage kobs at 2500 uM GlcN6P": "< 1e-05"}
{"variant": "A14U U45G G60U", "self-cleavage kobs at 2500 uM GlcN6P": "< 1e-05"}
{"variant": "G29U G44A U46C U65C", "self-cleavage kobs at 2500 uM GlcN6P": "< 1e-05"}
{"variant": "A14G G60U G66A", "self-cleavage kobs at 2500 uM GlcN6P": "< 1e-05"}
{"variant": "G13C C61A C68G", "self-cleavage kobs at 2500 uM GlcN6P": "< 1e-05"}
{"variant": "G29A U30C A48U C58U", "self-cleavage kobs at 2500 uM GlcN6P": "< 1e-05"}
{"variant": "A14U G29U C50G C68U", "self-cleavage kobs at 2500 uM GlcN6P": "0.000156 ± 3.8e-05"}
{"variant": "C16U G40A U69C", "self-cleavage kobs at 2500 uM GlcN6P": "3.52e-05 ± 1.7e-05"}
{"variant": "A14G G43C U57C", "self-cleavage kobs at 2500 uM GlcN6P": "< 1e-05"}
{"variant": "C16U A39G A48C", "self-cleavage kobs at 2500 uM GlcN6P": "0.000168 ± 5e-05"}
{"variant": "A14U A48C U69A", "self-cleavage kobs at 2500 uM GlcN6P": "< 1e-05"}
{"variant": "U31C C34U U69C", "self-cleavage kobs at 2500 uM GlcN6P": "< 1e-05"}
{"variant": "A14U U47C C61G", "self-cleavage kobs at 2500 uM GlcN6P": "< 1e-05"}
{"variant": "C16A A33C G40A U56C C67U", "self-cleavage kobs at 2500 uM GlcN6P": "< 1e-05"}
{"variant": "G13C G59A G66A C68U", "self-cleavage kobs at 2500 uM GlcN6P": "< 1e-05"}
{"variant": "U31A U47C U56C", "self-cleavage kobs at 2500 uM GlcN6P": "0.000498 ± 0.00011"}
{"variant": "G32A A39U U69A", "self-cleavage kobs at 2500 uM GlcN6P": "< 1e-05"}
{"variant": "A15C U49G C58G", "self-cleavage kobs at 2500 uM GlcN6P": "< 1e-05"}
{"variant": "U31C G41C U45A A52G C61G", "self-cleavage kobs at 2500 uM GlcN6P": "< 1e-05"}
{"variant": "G13U G38U C68U", "self-cleavage kobs at 2500 uM GlcN6P": "< 1e-05"}
{"variant": "A14U G32C U47A", "self-cleavage kobs at 2500 uM GlcN6P": "8.18e-05 ± 1.8e-05"}
{"variant": "C16G U30C G32C C58G", "self-cleavage kobs at 2500 uM GlcN6P": "5.09e-05 ± 2.2e-05"}
{"variant": "U31A G35C A39U C67A C70U", "self-cleavage kobs at 2500 uM GlcN6P": "< 1e-05"}
{"variant": "C16A G37U G41A", "self-cleavage kobs at 2500 uM GlcN6P": "< 1e-05"}
{"variant": "A14C U31G A39G G66U", "self-cleavage kobs at 2500 uM GlcN6P": "0.00126 ± 0.00036"}
{"variant": "C16G C50U A53C C68G", "self-cleavage kobs at 2500 uM GlcN6P": "0.000113 ± 4.6e-05"}
{"variant": "G29U G40A U65A", "self-cleavage kobs at 2500 uM GlcN6P": "3.42e-05 ± 1.6e-05"}
{"variant": "A15C A42G U56A G60U", "self-cleavage kobs at 2500 uM GlcN6P": "< 1e-05"}
{"variant": "G29C C61G G62A C70G", "self-cleavage kobs at 2500 uM GlcN6P": "0.000307 ± 0.00012"}
{"variants_of": "B1", "experiment": "self-cleavage kobs at 10000 uM GlcN6P; higher = faster cleavage; RNA array", "details": "with glucosamine-6-phosphate", "outline": "as §1", "units": {"self-cleavage kobs at 10000 uM GlcN6P": "s⁻¹"}}
{"variant": "A15C A36C G59A U65A", "self-cleavage kobs at 10000 uM GlcN6P": "< 1e-05"}
{"variant": "A14G U55G G66U", "self-cleavage kobs at 10000 uM GlcN6P": "0.00253 ± 0.00062"}
{"variant": "U30G G63C A64U", "self-cleavage kobs at 10000 uM GlcN6P": "< 1e-05"}
{"variant": "G29C C34U G35A G40U G59C", "self-cleavage kobs at 10000 uM GlcN6P": "< 1e-05"}
{"variant": "A14C G40U A53G", "self-cleavage kobs at 10000 uM GlcN6P": "0.000591 ± 0.0001"}
{"variant": "U31A A52U", "self-cleavage kobs at 10000 uM GlcN6P": "8.67e-05 ± 1.5e-05"}
{"variant": "G26U C58U", "self-cleavage kobs at 10000 uM GlcN6P": "7.64e-05 ± 1.4e-05"}
{"variant": "C16U A39G A48C", "self-cleavage kobs at 10000 uM GlcN6P": "0.000325 ± 9.5e-05"}
{"variant": "U31A U47C U56C", "self-cleavage kobs at 10000 uM GlcN6P": "0.000333 ± 6.1e-05"}
